Where a chain is given by its changes, count along the chain named. Numbers in names are those of the source.
Target: T1, Cre^Cat (interdomain linker and C-terminal catalytic domain of Cre recombinase, residues 127-343) (UniProt P06956 127-343)
T1 sequence (looked up): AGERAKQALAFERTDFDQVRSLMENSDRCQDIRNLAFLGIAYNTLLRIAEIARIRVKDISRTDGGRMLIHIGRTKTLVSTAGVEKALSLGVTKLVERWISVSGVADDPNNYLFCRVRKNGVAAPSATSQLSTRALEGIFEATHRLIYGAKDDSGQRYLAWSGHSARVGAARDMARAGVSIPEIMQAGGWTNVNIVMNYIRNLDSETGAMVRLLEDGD
Experiment: intermolecular PRE-NMR

binding result: binds
B1: MTSL tagged-Cre^Cat C155A/C240A/D343C (domain or fragment, UniProt P06956 127-343, looked up)
chain: T1 sequence (looked up) with C29A, C114A, D217C
modifications: MTSL paramagnetic spin probe on C-terminal residue C343

From publication doi:10.1101/2020.05.24.113654 (bioRxiv, 2020)
